The numbers were not newly measured in patent US20060105948A1, “GLP-2 derivatives” (Novo Nordisk A/S, priority 2003, published 2006), which cites them from elsewhere.

Data set [1] deals with (DS)-induced colitis in mice. As to conditions: 350 ng or 750 ng s.c. twice daily for 9-10 days.
The conditions of data set [2]: humans.
The conditions of data set [3]: in vivo.
[4] abbreviates: s.c. injection 400 mg = 106.000 pmol.

Regarding “A2G-GLP-2(1-33) (HGDGSFSDEMNTILDNLAARDFINWLIQTKITD; Glucagon-like peptide 2; UniProt P01275 146-178, looked up, variant A2G) [GLP-2 peptide analog with Ala2 replaced by Gly]”, the histology of colon entry in data set [1] (DS mice) is “greater proportion of intact mucosal epithelium, increased colon length, crypt depth and mucosal area”. For the same substance, the body weight loss entry in data set [1] (mice on 5% DS in drinking water) was “lost significantly less body weight”.
On to GLP-2(1-33), for which the “T½ value of elimination” value in data set [2] (GLP-2 infusion 0.8 pmol/kg * min) is reported as 7 min. Moreover, the “plasma level of intact GLP-2(1-33) reached on infusion” value in data set [2] (GLP-2 infusion 0.8 pmol/kg * min, increasing from 9 pM) is 0.131 nM. In addition, the “injected GLP-2(1-33) still intact” value in data set [2] (one hour after the s.c. injection) is listed as 69%. In data set [2] (setting [4]), the maximum plasma concentration is recorded as 1500 pM and the “time of maximum plasma concentration” value is on record as 45 min. In addition, the biological half-life result in data set [3] is reported as “about 7 min”.
